Measurements published in US20230265183A1 (MABWELL SHANGHAI BIOSCIENCE, published 2023).
Where two headings read alike, the source gives them in different places.

B1: 5M21 hz00 (antibody, human IgG1, kappa, V domains shown)
VH: QVQLVQSGAEVKKPGASVKVSCKASGYTFTTYYIHWVRQAPGQRLEWMGWIYPGNVNTKYNEKFKGRVTITRDTSASTAYMELSSLRSEDTAVYYCARGLYYFDYWGQGTLVTVSS
VL: DIQMTQSPSSLSASVGDRVTITCKASQSVSNDVAWYQQKPGKVPKLLIYYASNRYTGVPSRFSGSGSGTDFTLTISSLQPEDVATYYCQQDYSSPYTFGGGTKVEIKR
notes: Humanized
B2: 5M21 hz01 (antibody, human IgG1, kappa, V domains shown)
VH: QVQLVQSGAEVKKPGASVKVSCKASGYTFTTYYIHWVRQAPGQRLEWMGWIYPGNVNTKYNEKFKGRVTITRDTSASTAYMELSSLRSEDTAVYYCARGLYYFDYWGQGTLVTVSS
VL: DIQMTQSPSSLSASVGDRVTITCKASQSVSNDVAWYQQKPGKVPKLLIYYASNRYTGVPSRFSGSGSGTDFTLTISSLQPEDLATYFCQQDYSSPYTFGGGTKVEIKR
notes: Humanized
B3: 5M21 hz10 (antibody, human IgG1, kappa, V domains shown)
VH: QVQLVQSGAEVKKPGASVKVSCKASGYTFTTYYIHWVRQAPGQRLEWMGWIYPGNVNTKYNEKFKGRVTITADKSASTAYMELSSLRSEDTAVYYCARGLYYFDYWGQGTLVTVSS
VL: DIQMTQSPSSLSASVGDRVTITCKASQSVSNDVAWYQQKPGKVPKLLIYYASNRYTGVPSRFSGSGSGTDFTLTISSLQPEDVATYYCQQDYSSPYTFGGGTKVEIKR
notes: Humanized
B4: 5M21 hz11 (antibody, human IgG1, kappa, V domains shown)
VH: QVQLVQSGAEVKKPGASVKVSCKASGYTFTTYYIHWVRQAPGQRLEWMGWIYPGNVNTKYNEKFKGRVTITADKSASTAYMELSSLRSEDTAVYYCARGLYYFDYWGQGTLVTVSS
VL: DIQMTQSPSSLSASVGDRVTITCKASQSVSNDVAWYQQKPGKVPKLLIYYASNRYTGVPSRFSGSGSGTDFTLTISSLQPEDLATYFCQQDYSSPYTFGGGTKVEIKR
notes: Humanized
B5: chimeric antibody 42D20 xiIgG (antibody, V domains shown)
VH: QVQLKESGPGLVAPSQSLSISCTVSGFSLIDYGVSWIRQPPGKGLEWLGVIWGDGKIYYNSVLKSRLSISKDNSKSQVFLKMNSLQTDDTAMYYCAKQGGLLFYAMDYWGQGTSVTVSS
VL: DIVMTQSPSSLAMSVGQRVTMNCKSSQSLLNSYSQKNYLAWYQQKPGQSPKLLIYFASTRESGVPDRFIGSGSETDFTLTISSVQAEDLADYFCQQHYNTPFTFGSGTKLEIKR
B6: 42D20 hz00 (antibody, V domains shown)
VH: QVQLQESGPGLVKPSETLSLTCTVSGFSLIDYGVSWIRQPPGKGLEWIGVIWGDGKIYYNSVLKSRVTISVDTSKNQFSLKLSSVTAADTAVYYCARQGGLLFYAMDYWGQGTLVTVSS
VL: DIVMTQSPDSLAVSLGERATINCKSSQSLLNSYSQKNYLAWYQQKPGQPPKLLIYFASTRESGVPDRFSGSGSGTDFTLTISSLQAEDVAVYYCQQHYNTPFTFGAGTKLELKR
notes: Humanized
B7: 42D20 hz01 (antibody, V domains shown)
VH: QVQLQESGPGLVKPSETLSLTCTVSGFSLIDYGVSWIRQPPGKGLEWIGVIWGDGKIYYNSVLKSRVTISVDTSKNQFSLKLSSVTAADTAVYYCARQGGLLFYAMDYWGQGTLVTVSS
VL: DIVMTQSPDSLAVSLGERATINCKSSQSLLNSYSQKNYLAWYQQKPGQSPKLLIYFASTRESGVPDRFSGSGSETDFTLTISSLQAEDLAVYFCQQHYNTPFTFGAGTKLELKR
notes: Humanized
B8: 42D20 hz02 (antibody, V domains shown)
VH: QVQLQESGPGLVKPSETLSLTCTVSGFSLIDYGVSWIRQPPGKGLEWIGVIWGDGKIYYNSVLKSRVTISVDTSKNQFSLKLSSVTAADTAVYYCARQGGLLFYAMDYWGQGTLVTVSS
VL: DIVMTQSPDSLAVSLGERATINCKSSQSLLYSYSQKNYLAWYQQKPGQSPKLLIYFASTRESGVPDRFSGSGSETDFTLTISSLQAEDLAVYFCQQHYNTPFTFGAGTKLELKR
notes: Humanized
B9: 42D20 hz03 (antibody, V domains shown)
VH: QVQLQESGPGLVKPSETLSLTCTVSGFSLIDYGVSWIRQPPGKGLEWIGVIWGDGKIYYNSVLKSRVTISVDTSKNQFSLKLSSVTAADTAVYYCARQGGLLFYAMDYWGQGTLVTVSS
VL: DIVMTQSPDSLAVSLGERATINCKSSQSLLNTYSQKNYLAWYQQKPGQSPKLLIYFASTRESGVPDRFSGSGSETDFTLTISSLQAEDLAVYFCQQHYNTPFTFGAGTKLELKR
notes: Humanized
B10: 42D20 hz20 (antibody, V domains shown)
VH: QVQLQESGPGLVKPSETLSLTCTVSGFSLIDYGVSWIRQPPGKGLEWIGVIWGEGKIYYNSVLKSRVTISKDNSKSQVSLKLSSVTAADTAVYYCAKQGGLLFYAMDYWGQGTLVTVSS
VL: DIVMTQSPDSLAVSLGERATINCKSSQSLLNSYSQKNYLAWYQQKPGQPPKLLIYFASTRESGVPDRFSGSGSGTDFTLTISSLQAEDVAVYYCQQHYNTPFTFGAGTKLELKR
B11: 42D20 hz21 (antibody, V domains shown)
VH: QVQLQESGPGLVKPSETLSLTCTVSGFSLIDYGVSWIRQPPGKGLEWIGVIWGEGKIYYNSVLKSRVTISKDNSKSQVSLKLSSVTAADTAVYYCAKQGGLLFYAMDYWGQGTLVTVSS
VL: DIVMTQSPDSLAVSLGERATINCKSSQSLLNSYSQKNYLAWYQQKPGQSPKLLIYFASTRESGVPDRFSGSGSETDFTLTISSLQAEDLAVYFCQQHYNTPFTFGAGTKLELKR
notes: Humanized
B12: 42D20 hz23 (antibody, V domains shown)
VH: QVQLQESGPGLVKPSETLSLTCTVSGFSLIDYGVSWIRQPPGKGLEWIGVIWGEGKIYYNSVLKSRVTISKDNSKSQVSLKLSSVTAADTAVYYCAKQGGLLFYAMDYWGQGTLVTVSS
VL: DIVMTQSPDSLAVSLGERATINCKSSQSLLNTYSQKNYLAWYQQKPGQSPKLLIYFASTRESGVPDRFSGSGSETDFTLTISSLQAEDLAVYFCQQHYNTPFTFGAGTKLELKR
notes: Humanized
B13: chimeric antibody 5M21 xiIgG (antibody, V domains shown)
VH: QVQLQQSGPELVKPGASVRITCKASGYTFTTYYIHWVKQRPGQGLEWIGWIYPGNVNTKYNEKFKGKATLTADKSSSTAYMQLSSLTSEDSAVYFCARGLYYFDYWGQGTTLTVSS
VL: SIVMTQTPKFLLVSAGDRLTITCKASQSVSNDVAWYQQKPGQSPKLLIYYASNRYTGVPDRFTGSGYGTDFTFTISTVQAEDLAVYFCQQDYSSPYTFGGGTKLEIKR

Experiments:
[1] = biological target: T1, human Nectin-4 (human, UniProt Q96NY8 32-510); test: FACS on BT474 cells
T1 construct: whole, on cells; Cell-surface target of the FACS, endocytosis and proliferation assays (CHO-huNectin4 S8 cells, BT474 cells); the assay field says which cells; also called huNectin4; PVRL4
T1 sequence (looked up): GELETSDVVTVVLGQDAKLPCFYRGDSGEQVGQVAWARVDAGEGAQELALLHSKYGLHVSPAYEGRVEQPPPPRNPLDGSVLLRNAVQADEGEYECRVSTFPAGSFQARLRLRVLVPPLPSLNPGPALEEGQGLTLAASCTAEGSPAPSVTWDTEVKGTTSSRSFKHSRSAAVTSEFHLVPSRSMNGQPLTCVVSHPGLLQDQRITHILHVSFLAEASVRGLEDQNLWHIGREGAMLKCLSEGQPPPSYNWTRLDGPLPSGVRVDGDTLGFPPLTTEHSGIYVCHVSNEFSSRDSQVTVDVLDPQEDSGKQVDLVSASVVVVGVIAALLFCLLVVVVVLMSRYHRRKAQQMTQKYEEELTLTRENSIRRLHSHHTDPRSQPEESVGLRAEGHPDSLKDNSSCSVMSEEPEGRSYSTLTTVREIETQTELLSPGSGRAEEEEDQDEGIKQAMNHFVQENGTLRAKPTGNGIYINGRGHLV
Procedure: (§1) The solutions of different concentrations were added to 384-well plates, 10 µl per well.
(§2) BT474 cells (breast cancer cells) expressing Nectin-4 on the cell surface were collected by centrifugation at 100 g at room temperature for 5 minutes, and then the cells were washed with PBS containing 0.5% BSA once and were centrifuged at 100 g at room temperature for 5 minutes. […] After incubation at 4° C. for 1 hour, fluorescently labeled goat anti-human IgG secondary antibody was added. After continued incubation at 4° C. for 1 hour, mean fluorescence readings of the cell populations were analyzed by a flow cytometer.
(§3) The experiment results of the binding of engineered humanized molecules of the present disclosure to BT474 cells by FACS assay are shown in panels 3B and 3C in FIG. 3 and Tables 6 and 7.

[2] = biological target: T1, human Nectin-4; test: cell-based or functional assay
[3] = biological target: T1, human Nectin-4; test: FACS on BT474 cells; remark: listed apart in the source
Procedure: as §1, §2, §3

[4] = biological target: T1, human Nectin-4; test: cell-based or functional assay; remark: listed apart in the source
[5] = biological target: T2, His-tagged human NECTIN4 (human, UniProt Q96NY8 32-349); test: SPR (BIAcore S200), antigen on CAP chip, antibody as analyte, 1:1 fit
T2 construct: Antigen of the BIAcore assay; also called antigen; recombinant NECTIN4 protein; not shown: His tag
T2 sequence: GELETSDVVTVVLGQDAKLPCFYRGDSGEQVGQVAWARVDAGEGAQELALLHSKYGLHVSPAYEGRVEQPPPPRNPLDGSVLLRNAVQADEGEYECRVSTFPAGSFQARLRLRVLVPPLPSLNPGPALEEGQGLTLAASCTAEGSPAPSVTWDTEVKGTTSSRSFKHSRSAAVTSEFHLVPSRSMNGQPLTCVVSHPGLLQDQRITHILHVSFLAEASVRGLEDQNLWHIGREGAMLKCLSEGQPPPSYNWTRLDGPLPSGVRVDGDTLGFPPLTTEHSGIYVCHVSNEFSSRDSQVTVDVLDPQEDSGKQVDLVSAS
Procedure: Interactions between the antibodies and the antigen were measured using a BIAcore instrument S200 from GE. Referring to the instructions provided in Biotin Capture Kit from GE Healthcare, the analytical channel and the control sample channel on CAP sensor chip were first coupled with antigen i.e. His-tagged human NECTIN4, then samples containing antibodies (diluted 3-fold from an initial concentration of 20 nM respectively and solutions of each antibody of 8 concentrations were obtained totally, and the concentration 0.741 nM was set to be repeated) were allowed to flow through both the analytical channel and the sample channel, and the photoreactions upon antibody-antigen binding were measured. Association constant Kon and dissociation constant Koff and affinity constant KD of each antibody were finally obtained by instrument software fitting (1:1 binding mode) analysis.

| Binder | EC50 [1] [µg/mL] | Endocytosis efficiency (%) [2] [%] | EC50 [3] [µg/mL] | Endocytosis efficiency (%) [4] [%] | other results |
| --- | --- | --- | --- | --- | --- |
| B1 | 52.2 | 54.8 | – | – | – |
| B2 | 48.1 | 62.2 | – | – | – |
| B3 | 44.3 | 64.8 | – | – | – |
| B4 | 44.5 | 64.4 | – | – | – |
| B5 | – | – | 0.077 | 54 | Kd [5]: 1.01 nM; koff [5]: 0.000798 s⁻¹; kon [5]: 790000 M⁻¹ s⁻¹ |
| B6 | – | – | 1.34 | 39.1 | – |
| B7 | – | – | 0.132 | 41.5 | – |
| B8 | – | – | 0.112 | – | – |
| B9 | – | – | 0.0676 | 41.1 | – |
| B10 | – | – | – | 42 | – |
| B11 | – | – | 0.285 | 43.9 | – |
| B12 | – | – | 0.0503 | 45 | – |
| B13 | 46.1 | 56.9 | – | – | – |
